Substitutions are numbered along the chain they refer to. In names and notes the source's numbering stands.
B1: CE115HA000 A99T one-arm antibody (antibody, human IgG1, kappa, L234A L235A, N297A, name in Kabat numbering)
heavy: QVQLVESGGGVVQPGRSLRLSCAASGFTFSNAWMHWVRQAPGKGLEWVAQIKAKSNNYATYYAESVKGRFTISRDDSKNSLYLQMNSLKTEDTAVYYCRYVHYGTYYGVDAWGQGTTVTVSSASTKGPSVFPLAPSSKSTSGGTAALGCLVKDYFPEPVTVSWNSGALTSGVHTFPAVLQSSGLYSLSSVVTVPSSSLGTQTYICNVNHKPSNTKVDKKVEPKSCDKTHTCPPCPAPEAAGGPSVFLFPPKPKDTLMISRTPEVTCVVVDVSHEDPEVKFNWYVDGVEVHNAKTKPREEQYASTYRVVSVLTVLHQDWLNGKEYKCKVSNKALPAPIEKTISKAKGQPREPQVYTLPPSRCELTKNQVSLSCAVKGFYPSDIAVEWESNGQPENNYKTTPPVLDSDGSFFLVSKLTVDKSRWQQGNVFSCSVMHEALHNHYTQKSLSLSPDYKDDDDK
chain: EPKSSDKTHTCPPCPAPELLGGPSVFLFPPKPKDTLMISRTPEVTCVVVDVSHEDPEVKFNWYVDGVEVHNAKTKPREEQYNSTYRVVSVLTVLHQDWLNGKEYKCKVSNKALPAPIEKTISKAKGQPREPQVCTLPPSRDELTKNQVSLWCLVKGFYPSDIAVEWESNGQPENNYKTTPPVLDSDGSFFLYSKLTVDKSRWQQGNVFSCSVMHEALHNRYTQKSLSLSP
light: DIVMTQSPLSLPVTPGEPASISCRSSQSLVHSNRNTYLHWYQQKPGQAPRLLIYKVSNRFSGVPDRFSGSGSGTDFTLKISRVEAEDVGVYYCGQGTQVPYTFGQGTKLEIKRTVAAPSVFIFPPSDEQLKSGTASVVCLLNNFYPREAKVQWKVDNALQSGNSQESVTEQDSKDSTYSLSSTLTLSKADYEKHKVYACEVTHQGLSSPVTKSFNRGEC
B2: CE115HA000 A102V one-arm antibody (antibody, human IgG1, kappa, L234A L235A, N297A, name in Kabat numbering)
heavy: B1 heavy with T105A, A111V
chain: B1 chain
light: B1 light
B3: CE115HA000 D101L one-arm antibody (antibody, human IgG1, kappa, L234A L235A, N297A, name in Kabat numbering)
heavy: B1 heavy with T105A, D110L
chain: B1 chain
light: B1 light
B4: CE115HA000 D101H one-arm antibody (antibody, human IgG1, kappa, L234A L235A, N297A, name in Kabat numbering)
heavy: B1 heavy with T105A, D110H
chain: B1 chain
light: B1 light
B5: CE115HA000 D73A one-arm antibody (antibody, human IgG1, kappa, L234A L235A, N297A, name in Kabat numbering)
heavy: B1 heavy with D76A, T105A
chain: B1 chain
light: B1 light
B6: CE115HA000 D73R one-arm antibody (antibody, human IgG1, kappa, L234A L235A, N297A, name in Kabat numbering)
heavy: B1 heavy with D76R, T105A
chain: B1 chain
light: B1 light
B7: CE115HA000 A102I one-arm antibody (antibody, human IgG1, kappa, L234A L235A, N297A, name in Kabat numbering)
heavy: B1 heavy with T105A, A111I
chain: B1 chain
light: B1 light
B8: CE115HA000 E61A one-arm antibody (antibody, human IgG1, kappa, L234A L235A, N297A, name in Kabat numbering)
heavy: B1 heavy with E64A, T105A
chain: B1 chain
light: B1 light
B9: CE115HA000 D73T one-arm antibody (antibody, human IgG1, kappa, L234A L235A, N297A, name in Kabat numbering)
heavy: B1 heavy with D76T, T105A
chain: B1 chain
light: B1 light
B10: CE115HA000 D73E one-arm antibody (antibody, human IgG1, kappa, L234A L235A, N297A, name in Kabat numbering)
heavy: B1 heavy with D76E, T105A
chain: B1 chain
light: B1 light
B11: CE115HA000 D101R one-arm antibody (antibody, human IgG1, kappa, L234A L235A, N297A, name in Kabat numbering)
heavy: B1 heavy with T105A, D110R
chain: B1 chain
light: B1 light
B12: CE115HA000 D101Y one-arm antibody (antibody, human IgG1, kappa, L234A L235A, N297A, name in Kabat numbering)
heavy: B1 heavy with T105A, D110Y
chain: B1 chain
light: B1 light
B13: CE115HA000 D101G one-arm antibody (antibody, human IgG1, kappa, L234A L235A, N297A, name in Kabat numbering)
heavy: B1 heavy with T105A, D110G
chain: B1 chain
light: B1 light
B14: CE115HA000 A102P one-arm antibody (antibody, human IgG1, kappa, L234A L235A, N297A, name in Kabat numbering)
heavy: B1 heavy with T105A, A111P
chain: B1 chain
light: B1 light
B15: CE115HA000 D101S one-arm antibody (antibody, human IgG1, kappa, L234A L235A, N297A, name in Kabat numbering)
heavy: B1 heavy with T105A, D110S
chain: B1 chain
light: B1 light
B16: CE115HA000 D101T one-arm antibody (antibody, human IgG1, kappa, L234A L235A, N297A, name in Kabat numbering)
heavy: B1 heavy with T105A, D110T
chain: B1 chain
light: B1 light
B17: CE115HA000 D101A one-arm antibody (antibody, human IgG1, kappa, L234A L235A, N297A, name in Kabat numbering)
heavy: B1 heavy with T105A, D110A
chain: B1 chain
light: B1 light
B18: CE115HA000 D72A one-arm antibody (antibody, human IgG1, kappa, L234A L235A, N297A, name in Kabat numbering)
heavy: B1 heavy with D75A, T105A
chain: B1 chain
light: B1 light
B19: CE115HA000 A99Y one-arm antibody (antibody, human IgG1, kappa, L234A L235A, N297A, name in Kabat numbering)
heavy: B1 heavy with T105Y
chain: B1 chain
light: B1 light
B20: CE115HA000 D101M one-arm antibody (antibody, human IgG1, kappa, L234A L235A, N297A, name in Kabat numbering)
heavy: B1 heavy with T105A, D110M
chain: B1 chain
light: B1 light
B21: CE115HA000 D72V one-arm antibody (antibody, human IgG1, kappa, L234A L235A, N297A, name in Kabat numbering)
heavy: B1 heavy with D75V, T105A
chain: B1 chain
light: B1 light
B22: CE115HA000 D101F one-arm antibody (antibody, human IgG1, kappa, L234A L235A, N297A, name in Kabat numbering)
heavy: B1 heavy with T105A, D110F
chain: B1 chain
light: B1 light
B23: CE115HA000 D101N one-arm antibody (antibody, human IgG1, kappa, L234A L235A, N297A, name in Kabat numbering)
heavy: B1 heavy with T105A, D110N
chain: B1 chain
light: B1 light
B24: CE115HA000 D73K one-arm antibody (antibody, human IgG1, kappa, L234A L235A, N297A, name in Kabat numbering)
heavy: B1 heavy with D76K, T105A
chain: B1 chain
light: B1 light
B25: CE115HA000 D73G one-arm antibody (antibody, human IgG1, kappa, L234A L235A, N297A, name in Kabat numbering)
heavy: B1 heavy with D76G, T105A
chain: B1 chain
light: B1 light
B26: CE115HA000 A102Y one-arm antibody (antibody, human IgG1, kappa, L234A L235A, N297A, name in Kabat numbering)
heavy: B1 heavy with T105A, A111Y
chain: B1 chain
light: B1 light
B27: CE115HA000 D101I one-arm antibody (antibody, human IgG1, kappa, L234A L235A, N297A, name in Kabat numbering)
heavy: B1 heavy with T105A, D110I
chain: B1 chain
light: B1 light
B28: CE115HA000 D101K one-arm antibody (antibody, human IgG1, kappa, L234A L235A, N297A, name in Kabat numbering)
heavy: B1 heavy with T105A, D110K
chain: B1 chain
light: B1 light
B29: CE115HA000 D101P one-arm antibody (antibody, human IgG1, kappa, L234A L235A, N297A, name in Kabat numbering)
heavy: B1 heavy with T105A, D110P
chain: B1 chain
light: B1 light
B30: CE115HA000 D101V one-arm antibody (antibody, human IgG1, kappa, L234A L235A, N297A, name in Kabat numbering)
heavy: B1 heavy with T105A, D110V
chain: B1 chain
light: B1 light
B31: CE115HA000 D72E one-arm antibody (antibody, human IgG1, kappa, L234A L235A, N297A, name in Kabat numbering)
heavy: B1 heavy with D75E, T105A
chain: B1 chain
light: B1 light
B32: CE115HA000 D101Q one-arm antibody (antibody, human IgG1, kappa, L234A L235A, N297A, name in Kabat numbering)
heavy: B1 heavy with T105A, D110Q
chain: B1 chain
light: B1 light
B33: CE115HA000 D73N one-arm antibody (antibody, human IgG1, kappa, L234A L235A, N297A, name in Kabat numbering)
heavy: B1 heavy with D76N, T105A
chain: B1 chain
light: B1 light

molecular target: T1, CD3 epsilon homodimer protein (UniProt P07766 23-126); experiment: SPR (Biacore T200), CD3 epsilon homodimer on CM4 chip, one-arm antibody as analyte, 25 C;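 note: homodimer attached to the sensor surface via amine coupling, HBS-EP+ used as running buffer during binding runs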
T1 construct: immobilized on Sensor chip CM4 by amine coupling; also called CD3 (CD3 epsilon)
T1 sequence (P07766 23-126): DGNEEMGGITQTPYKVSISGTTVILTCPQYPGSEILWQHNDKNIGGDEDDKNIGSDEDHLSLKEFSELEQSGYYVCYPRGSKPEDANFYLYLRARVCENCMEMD
Experimental: An appropriate amount of CD3 epsilon homodimer protein was immobilized onto Sensor chip CM4 (GE Healthcare Japan Corp.) by the amine coupling method. Then, the antibody having an appropriate concentration was injected thereto as an analyte and allowed to interact with the CD3 epsilon homodimer protein on the sensor chip. Then, the sensor chip was regenerated by the injection of 10 mmol/L glycine-HCl (pH 1.5). The assay was conducted at 25 degrees C., and HBS-EP+(GE Healthcare Japan Corp.) was used as a running buffer. […] Each parameter was calculated using Biacore T200 Evaluation Software (GE Healthcare Japan Corp.).

Row | Binder | ratio of amounts bound (altered form / CE115HA000)
1 | B1 | 0.84
2 | B2 | 1.43
3 | B3 | 0.62
4 | B4 | 1.21
5 | B5 | 0.83
6 | B6 | 1.04
7 | B7 | 1.48
8 | B8 | 1.09
9 | B9 | 0.63
10 | B10 | 0.73
11 | B11 | 0.24
12 | B12 | 0.49
13 | B13 | 1.38
14 | B14 | 0.14
15 | B15 | 1.16
16 | B16 | 0.79
17 | B17 | 1.26

Row | Binder | ratio of amounts bound (altered form / CE115HA000)
18 | B18 | 1.41
19 | B19 | 1.59
20 | B20 | 1.2
21 | B21 | 1.43
22 | B22 | 0.75
23 | B23 | 2.02
24 | B24 | 0.87
25 | B25 | 1.07
26 | B26 | 0.91
27 | B27 | 1.18
28 | B28 | 0.63
29 | B29 | 0.2
30 | B30 | 1.33
31 | B31 | 1.05
32 | B32 | 2.35
33 | B33 | 0.94

From patent US20210388087A1 (Chugai, published 2021)
